According to patent US20140234868A1, “USE FOR GLYCOLIPOPROTEIN GINTONIN, ISOLATED AND IDENTIFIED FROM GINSENG, AS A NATURAL MEDICAL-PLANT DERIVED LIGAND” (KONKUK UNIVERSITY INDUSTRIAL COOPERATION CORP., priority 2011, published 2014):

Assays:
[1] = test system: mutant NMDA receptor (S1308A); test: Gintonin-induced activation of mutant NMDA receptor S1308A in oocytes; format: cell-based; conditions: mutant S1308A (PKC phosphorylation site)
Description: Two-electrode voltage-clamp recordings were obtained from individual oocytes placed in a small Plexiglas net chamber (5 ml). Electrophysiological experiments were performed using microelectrodes filled with 3 M KCl (resistance of 0.2-0.7 MΩ) and an Oocyte Clamp amplifier (OC-725C; Warner Instrument, Hamden, Conn.). For physiological recordings of NMDA receptor activity, oocytes were first perfused with Mg^2+-free ND96 (mM: 96 NaOH, 2 KOH, 0.3 CaCl2, 5 HEPES pH 7.6 with methanesulfonic acid). Then, the oocytes were clamped at −60 mV holding potential, followed by recoding NMDA currents (induced by administering […]) (Zheng et al., J Neurosci. 17, 8676-8686, 1997; Chang and Kuo, J Neurosci. 28, 1546-1556, 2008).
Thus, it is understood that gintonin stimulates PKC to phosphorylate the NMDA receptor at a specific site (S1308), and thus that gintonin-induced NMDA receptor activation is associated with PKC activity.

HUVECs = test: HUVEC proliferation, BrDU incorporation ELISA; format: cell-based, human; conditions: gintonin 24 hrs
Description: In this Example, gintonin was examined for effect on cell growth. In this regard, HUVECs (human umbilical vein endothelial cells) were cultured with BrDU in the presence of gintonin, and analyzed for relative BrDU content by BrDU assay (Won et al., J Pharmacol Sci 108, 372-379, 2008; Chen et al., Cell Physiol Biochem 22, 307-314, 2008) using a BrDU cell proliferation ELISA kit (Roche, Germany).
Briefly, cells were seeded at a density of 3×10^3 cells/well into 96-well plates one day before treatment with gintonin. After 24 hrs of incubation, the cells were cultured for 6 hrs in a fresh M199 medium supplemented with […]. Again, the medium was changed to a fresh M199 medium supplemented with […], after which the cells were incubated with gintonin for 24 hrs. For an additional 24 hrs, the cells were incubated with a BrDU labeling reagent. After medium was removed, the cells were washed with 10% FBS-supplemented M199, fixed with a fixative, and quantitatively analyzed for relative intracellular BrDU content using an anti-BrDU-peroxidase antibody and a luminometer (Veritas, Turner Biosystems, USA).

GPR35 = biological target: T1, GPR35 (Homo sapiens, UniProt Q9HC97); test: Intracellular free Ca2+ in GPR35-expressing B103 cells; format: cell-based
T1 construct: host or cells: B103 rat neuroblastoma cells
T1 sequence (Q9HC97 whole entry): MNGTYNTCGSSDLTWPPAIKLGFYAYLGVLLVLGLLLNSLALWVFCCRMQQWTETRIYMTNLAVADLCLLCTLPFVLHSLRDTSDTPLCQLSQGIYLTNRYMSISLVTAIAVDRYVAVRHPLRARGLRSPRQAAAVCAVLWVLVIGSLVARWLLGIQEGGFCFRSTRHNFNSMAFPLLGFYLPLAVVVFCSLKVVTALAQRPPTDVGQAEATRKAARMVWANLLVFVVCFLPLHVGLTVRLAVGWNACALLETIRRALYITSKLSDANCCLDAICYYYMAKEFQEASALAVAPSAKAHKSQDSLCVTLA
From the text: Optionally, the method may further comprise (8) pre-treating the suspended B103 cells with LPA receptor antagonists and LPA receptor-mediated signaling-relevant drugs (e.g., pertussis toxin, PLC inhibitors, IP3 receptor antagonists) to examine whether the cells decrease or increase in intracellular free Ca^2+, prior to treatment with gintonin; (9) performing site-directed mutagenesis to identify an amino acid of LPA receptors with which gintonin interact to activate the LPA; and (10) examining whether gintonin activates orphan GPCRs including GPR35 and GPR87, and free fatty acid GPCRs including GPR40, GPR41, GPR43 and GPR120, all known for activation by LPA.
In addition, GPR35 (Oka et al., Biochem Biophys Res Commun. 395, 232-237, 2010) and GPR87 (Tabata et al., Biochem Biophys Res Commun. 363, 861-866, 2007), both known as orphan GPCRs reacting with LPA, and GPR40, GPR41, GPR43 and GPR120 (Hirasawa et al., Biol Pharm Bull. 31, 1847-1851, 2008), all known as fatty acid receptors reacting with free fatty acids, were expressed in B103 cells when gintonin activity was tested.

B1: gintonin: ginseng-derived glycolipoprotein; structural protein of ginseng major latex-like protein (MLP151) and ribonuclease-like storage proteins; crude gintonin used in tests (protein)
chain 1: MGLTGKLICQTGIKSDGDVFHELFGTRPHHVPNITPANIQGCDLHEGEFGKVGSVVIWNYSIDGNAMIAKEEIVAIDEEDKSVTFKVVEGHLFEEFKSIVFSVHVDTKGEDNLVTWSIDYEKLNESVKDPTSYLDFLLSVTRDIEAHHLPK
chain 2: RSDYPWAMFALRLQWPAGFCEVNNACDTKSLLNTFTIHGLYPYNAKGTPALYCDGTAFDVNSVSDFLAEMHLAWPSHETNTEDIQFWEHEWKKHGRCSEALLKQTDYFRTALAFRKAFDIVGLLNQEGIYPNNDLYRPKMIKEAIKKHLNAVPEIDFTKNENSEYVLTDINVCVNQQATRFVDCPTDDATDDYRLKFVRLPSKMKFADPRTNSII
gintonin-induced NMDA receptor activation [1]: a low level of gintonin-induced NMDA receptor activation
incorporation of Br-DU into DNA (HUVECs): increase the incorporation of Br-DU into the DNA of HUVECs in a concentration-dependent manner
increase of intracellular calcium level (GPR35): increase an intracellular calcium level in GPR35-expressing B103 cells, but slightly
